According to patent publication US20160264662A1 (US Dept. of Health and Human Services, published 2016):

Target: T1, human TEM8 (hTEM8) expressed on CHO or 293 cells (human, UniProt Q9H6X2 33-564)
T1 construct: also called CHO TEM8
Test: cell-based ELISA-type titration of m825-MMAE on CHO cells overexpressing TEM8, with TEM8-negative CHO cells as control; absorbance at 450 nm against Log (ng/well)

T1 sequence (Q9H6X2 33-564 limits assumed): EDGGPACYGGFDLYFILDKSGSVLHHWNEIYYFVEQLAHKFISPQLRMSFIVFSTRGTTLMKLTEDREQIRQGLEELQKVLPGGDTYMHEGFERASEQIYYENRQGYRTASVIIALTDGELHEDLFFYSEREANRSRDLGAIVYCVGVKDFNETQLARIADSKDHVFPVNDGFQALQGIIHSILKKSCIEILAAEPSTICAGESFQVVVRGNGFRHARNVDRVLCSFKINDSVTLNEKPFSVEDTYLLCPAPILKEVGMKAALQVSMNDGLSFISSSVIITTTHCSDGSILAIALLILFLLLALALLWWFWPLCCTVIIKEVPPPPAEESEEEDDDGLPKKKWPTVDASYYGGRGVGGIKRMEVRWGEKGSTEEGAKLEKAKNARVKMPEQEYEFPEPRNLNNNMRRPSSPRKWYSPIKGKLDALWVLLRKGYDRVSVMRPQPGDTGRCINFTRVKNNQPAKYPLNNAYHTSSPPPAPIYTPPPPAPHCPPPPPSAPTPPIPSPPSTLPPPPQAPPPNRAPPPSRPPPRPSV

B1: m825-MMAE conjugate (m825 antibody in human IgG1 format conjugated to MMAE) (other)
VH: QVQLVQSGAEVKKPGTSVKVSCKVPGYTFSSYAISWVRQAPGQGLEWMGGIIPIFGTTNYAQKFQGRVTITGEESTSTVYMELSSLRSEDTAVYYCARDTDYMFDYWGQGTLVTVSS
VL: SSELTQDPVVSVALGETVSITCQGDNLRDFYASWYQQKPGQAPLLVMYGKNRRPSGIPDRFSGSTSGNTLSLTITGAQAEDEADYYCSSRDNSKHVVFGGGTKVTVL
modifications: MMAE with stretcher unit, Val-Cit peptide cleavage site and spacer, attached to thiol groups formed by partial reduction of inter-chain disulfide bonds (positions not stated)
notes: also called anti-TEM8-MMAE
With B1 the “EC50 (read off the curve)” value was about 2 ng/well.
